Measured values published in publication PMC2646901.

Key:
[1] = target: formyl peptide receptor (FPR) (UniProt P21462)
[2] = target: human C5a receptor (C5aR) (human) (UniProt P21730); test: flow cytometry on cells; kinetics: 300 nM FITC-CHIPS(28-149) added to C5aR-transfected RBL cells, dissociation started with 14 μM unlabelled CHIPS(28-149); Kd from kobs and koff, five experiments
[3] = target: human C5a receptor (C5aR) (human) (UniProt P21730)
[4] = target: C5a-like receptor 2 (C5L2), the second C5a receptor (UniProt Q9P296); test: flow cytometry on cells; inhibition of ligand binding: transfected cells co-incubated with rCHIPS(28-149) and His6-C5a (50 nM), His6-C5a des Arg (50 nM) or FITC-formyl peptide (500 nM); 30 min at 4 °C in PBS + 0.1% BSA, 0.2% NaN3; His6 ligands detected with anti-RGSHis6 and anti-mouse IgG-FITC
[5] = target: human C5a receptor (C5aR) (human) (UniProt P21730); test: as above
[6] = target: human C5a receptor (C5aR) (human) (UniProt P21730); test: flow cytometry on cells; competition: RBL cells transfected with human C5aR pre-treated with unlabelled CHIPS or human C5a, then 210 nM FITC-rCHIPS(28-149); cell-associated fluorescence

human C5a receptor (C5aR) (human), sequence (P21730 whole entry): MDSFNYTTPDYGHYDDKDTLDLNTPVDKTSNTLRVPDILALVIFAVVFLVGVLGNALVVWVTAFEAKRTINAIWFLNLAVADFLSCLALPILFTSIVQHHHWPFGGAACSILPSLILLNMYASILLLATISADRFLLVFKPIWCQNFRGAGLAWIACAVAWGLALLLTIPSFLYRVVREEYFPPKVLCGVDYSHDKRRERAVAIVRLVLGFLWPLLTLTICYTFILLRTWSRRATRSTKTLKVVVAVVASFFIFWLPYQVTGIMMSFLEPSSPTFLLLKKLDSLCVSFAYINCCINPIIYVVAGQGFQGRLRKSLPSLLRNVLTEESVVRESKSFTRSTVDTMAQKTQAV
formyl peptide receptor (FPR), sequence (P21462 whole entry): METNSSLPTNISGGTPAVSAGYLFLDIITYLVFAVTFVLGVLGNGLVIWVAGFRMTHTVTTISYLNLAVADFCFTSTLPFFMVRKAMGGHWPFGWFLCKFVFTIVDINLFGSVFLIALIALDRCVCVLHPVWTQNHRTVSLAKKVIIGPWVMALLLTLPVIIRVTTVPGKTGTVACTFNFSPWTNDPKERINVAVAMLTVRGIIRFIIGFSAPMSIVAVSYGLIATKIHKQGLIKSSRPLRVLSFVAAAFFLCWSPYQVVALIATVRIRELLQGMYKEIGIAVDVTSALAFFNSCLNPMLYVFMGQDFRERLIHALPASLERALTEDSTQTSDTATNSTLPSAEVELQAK
C5a-like receptor 2 (C5L2), the second C5a receptor, sequence (Q9P296 whole entry): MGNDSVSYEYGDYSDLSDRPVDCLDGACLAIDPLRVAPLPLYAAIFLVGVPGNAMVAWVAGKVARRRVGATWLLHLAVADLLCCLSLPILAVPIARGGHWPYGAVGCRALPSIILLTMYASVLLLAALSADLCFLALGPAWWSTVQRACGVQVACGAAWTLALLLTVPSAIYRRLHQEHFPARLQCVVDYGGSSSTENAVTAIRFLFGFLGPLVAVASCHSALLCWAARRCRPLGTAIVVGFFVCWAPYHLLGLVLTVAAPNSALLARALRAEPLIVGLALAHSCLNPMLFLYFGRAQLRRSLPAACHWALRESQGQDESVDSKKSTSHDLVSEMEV

## rCHIPS_(30–141) (from UniProt A6QIG7 30-141) (domain or fragment)
[1]
  inhibition of FPR activation by formyl peptide on RBL cells (Schild plot); potency relative to rCHIPS(28-149): 12 fold

## FITC-labelled recombinant CHIPS_(28–149) (from UniProt A6QIG7 28-149) (domain or fragment)
[2]
  t1/2 of association: 10.2 s
  t1/2 of dissociation: 43.8 s

## recombinant chemotaxis inhibitory protein of Staphylococcus aureus, residues 28-149 (rCHIPS_(28–149)) (from UniProt A6QIG7 28-149) (domain or fragment)
[3]
  inhibition of C5a-induced activation of C5aR on RBL cells (secretion of β-hexosaminidase); blocks C5a + C5aR: 2.44 µM
[1]
  inhibition of formyl peptide-induced activation of FPR on RBL cells (secretion of β-hexosaminidase): > 1 mM
[4]
  IC50: 274 nM
[5]
  IC50: 6.7 nM
[6]
  IC50: 69 nM
